In the supplement of paper PMC9732359 one finds protein stability index data, which are given here for 25 sequences.

The series can be described thus: protein stability index of a GFP-peptide fusion (yeast GPS) (PSI 1-4); higher = more stable; sorted into four equal gates, so the index is relative within each strain. The gist of the method:
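Tiled 17-residue peptides from yeast proteins were fused downstream of GFP on a plasmid that also expresses Cherry, and the pooled library was carried in yeast. Mid-log cultures grown in leucine-free medium were sorted into four equal gates by GFP/Cherry fluorescence ratio. Plasmids from each gate were PCR-amplified and Illumina-sequenced, and reads were assigned to strains by barcodes. Each peptide's protein stability index is the sum, over gates, of the gate's read frequency multiplied by its gate number.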

± gives the uncertainty stated by the source.

For the sequence GAMTPEEIFFKSVRILK [RPC40], the protein stability index stood at 2.9 ± 0.12 (doa10∆), 3.28 ± 0.14 (pdr5∆), 2.96 ± 0.14 (san1∆) and 3.22 ± 0.093 (ubr1∆).

Take ELAINLIRFDESITKAM [SMC2]: the protein stability index came out at 2.59 ± 0.062 (doa10∆), 2.78 ± 0.08 (pdr5∆), 2.62 ± 0.09 (san1∆) and 2.65 ± 0.071 (ubr1∆).

As for TNWIIYPLWVMAKQLIR [CSN12], the protein stability index amounted to 1.39 ± 0.11 (doa10∆), 1.2 ± 0.13 (pdr5∆) and 1.24 ± 0.11 (ubr1∆).

VRVQFQFTGFLLHEMTQ [GRR1]: the protein stability index came out at 1.83 ± 0.067 (doa10∆), 2.08 ± 0.061 (pdr5∆), 1.91 ± 0.074 (san1∆) and 1.85 ± 0.053 (ubr1∆).

GPVAAQFTKVIDEPIKS [FAS1]: the protein stability index is, setting by setting: (doa10∆) 1.8 ± 0.2; (pdr5∆) 2.41 ± 0.092; (san1∆) 2.15 ± 0.14; (ubr1∆) 2 ± 0.052.

FCPGEIVGKSNVLVTMP [YMR129W/POM152]: the protein stability index is 2.69 ± 0.12 (doa10∆), 2.3 ± 0.1 (pdr5∆), 1.82 ± 0.27 (san1∆) and 2.51 ± 0.085 (ubr1∆).

Regarding LRRRTASHNVRRIPKRM [POP1], the protein stability index by setting is: (doa10∆) 2.98 ± 0.065; (pdr5∆) 3.02 ± 0.062; (san1∆) 2.85 ± 0.052; (ubr1∆) 2.75 ± 0.042.

Turning to ETISAIEHPMTSAIEVL [RPN1], the protein stability index is 1.49 ± 0.048 (doa10∆), 1.72 ± 0.042 (pdr5∆), 1.76 ± 0.071 (san1∆) and 1.8 ± 0.044 (ubr1∆).

With TYSTPKRPYESSRLDAE [RPS9A], the protein stability index by setting is: (doa10∆) 2.97 ± 0.073; (pdr5∆) 3.02 ± 0.062; (san1∆) 2.93 ± 0.082; (ubr1∆) 2.87 ± 0.064.

SENRNNIKSSISNGNLA [YOR098C/NUP1] showed a protein stability index (pdr5∆) of 3.65 ± 0.24, a protein stability index (san1∆) of 2.96 ± 0.22 and a protein stability index (ubr1∆) of 3.17 ± 0.24.

Regarding IPSIPNPIANHTVTNSP [SNF5], the protein stability index was 2.46 ± 0.039 (doa10∆), 2.68 ± 0.036 (pdr5∆), 2.45 ± 0.041 (san1∆) and 2.6 ± 0.027 (ubr1∆).

With IVAAGGGSGAATFSVSQ [CSL4], the protein stability index (pdr5∆) came out at 3.47 ± 0.2.

For the sequence SSNTNNNTNNNNTNTGA [SWI1], the protein stability index (doa10∆) amounted to 3.48 ± 0.071, the protein stability index (pdr5∆) worked out at 3.29 ± 0.069, the protein stability index (san1∆) is 3.29 ± 0.057 and the protein stability index (ubr1∆) worked out at 3.33 ± 0.065.

With LDCDGGFIDASCIAVMA [RRP45], the protein stability index reads like this: (doa10∆) 1.87 ± 0.047; (pdr5∆) 1.56 ± 0.049; (san1∆) 2.67 ± 0.071; (ubr1∆) 1.56 ± 0.04.

For the sequence GGEKTVAALALLFAINS [SMC1], the protein stability index amounted to 1.2 ± 0.078 (doa10∆), 1.27 ± 0.092 (pdr5∆), 1.12 ± 0.23 (san1∆) and 1.9 ± 0.14 (ubr1∆).

As to LTRQPTEGRSRDGGLRL [RET1], the protein stability index stood at 2.07 ± 0.07 (doa10∆), 2.14 ± 0.077 (pdr5∆), 2.06 ± 0.15 (san1∆) and 2.01 ± 0.059 (ubr1∆).

As for KRCVGVILGDANSSTIR [RPN8], the protein stability index reads like this: (doa10∆) 2.85 ± 0.042; (pdr5∆) 2.77 ± 0.051; (san1∆) 2.82 ± 0.061; (ubr1∆) 2.94 ± 0.039.

Take HAYRDVLAQYHEAKERI [SNF6]: the protein stability index reads like this: (doa10∆) 2.98 ± 0.066; (pdr5∆) 3.43 ± 0.071; (san1∆) 3.09 ± 0.059; (ubr1∆) 3.31 ± 0.051.

Consider PSVGVKTMKTFVIHIQE [RPB5], for which the protein stability index runs as follows: (doa10∆) 2.83 ± 0.087; (pdr5∆) 2.82 ± 0.13; (san1∆) 2.47 ± 0.13; (ubr1∆) 2.76 ± 0.1.

In turn, GCVNSLISGPRNQILVS [YMR129W/POM152] registered a protein stability index (pdr5∆) of 1.36 ± 0.22.

KVTKIWSKESNYDCKVI [PRP28] gave a protein stability index (doa10∆) of 2.93 ± 0.1, a protein stability index (pdr5∆) of 2.47 ± 0.059, a protein stability index (san1∆) of 2.61 ± 0.051 and a protein stability index (ubr1∆) of 2.97 ± 0.058.

As to AVKNKYNVGKQLSNEII [PRP28], the protein stability index came out at 2.08 ± 0.066 (doa10∆), 2.52 ± 0.074 (pdr5∆), 2.17 ± 0.088 (san1∆) and 2.3 ± 0.069 (ubr1∆).

Regarding ARDLFLKIYYKEEFSSD [RRI2], the protein stability index (pdr5∆) is 2.44 ± 0.15, the protein stability index (san1∆) was 2.03 ± 0.22 and the protein stability index (ubr1∆) turned out to be 2.9 ± 0.1.

The sequence TKISTLAVKVHGGSRYA [QCR2] displayed a protein stability index (doa10∆) of 1.34 ± 0.12, a protein stability index (pdr5∆) of 1.64 ± 0.21, a protein stability index (san1∆) of 1.18 ± 0.29 and a protein stability index (ubr1∆) of 1.41 ± 0.17.

Take SGMGPDYRVLVDKSRKV [PRE8]: the protein stability index by setting is: (doa10∆) 3 ± 0.14; (pdr5∆) 2.21 ± 0.19; (ubr1∆) 2.98 ± 0.24.
